Here are results for eight sequences from PMC5612765.

The subject of data set [1] is T1, Fis (His-tagged) (Pseudomonas putida), ORF:eb421da7.
T1 sequence: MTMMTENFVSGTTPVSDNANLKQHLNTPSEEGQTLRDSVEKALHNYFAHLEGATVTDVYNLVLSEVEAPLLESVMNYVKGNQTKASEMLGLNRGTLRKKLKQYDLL
Kind of data set: EMSA with competition. Particulars: EMSA: 24 mM Tris/HCl pH 7.5, 50 mM KCl, 10 mM MgCl2, 1 mM CaCl2, 0.1 mM EDTA, 5% glycerol, 0.05 ug/ul BSA, 0.05 ug/ul salmon sperm DNA, 20 min room ….

Data set [2] shares this test system. Kind of data set: DNase I footprinting. Particulars: EMSA: 24 mM Tris/HCl pH 7.5, 50 mM KCl, 10 mM MgCl2, 1 mM CaCl2, 0.1 mM EDTA, 5% glycerol, 0.05 ug/ul BSA, 0.05 ug/ul salmon sperm DNA, 20 min room …. Background: A gel shift assay detects complexes by their altered migration in electrophoresis.

With “AGGATCCGAAACGCTTGGCTAAGGTACAAATATCAATGTGACATTACATTGCCGATTGTTTAGGATGGCATGTATAAGCTGAATAGTTTGGAGGTCAGGCAATTCCAAAAAGTTATAGACGGAATATTGACGTCAAAAACGTCAAGAGATCATCGACATAGTTCCGCCTGAAGTGGCTAGCAAGCGCCGCTCTGGCAGGGAAGTACC (double strand) [Fis-A1-Fis-A2mut fragment]”, in data set [1], the binding entry is “binds more weakly”.

Consider “AGGATCCGAAACGCTTGGCTAAGGTACAAATATCAATGTGACATTACATTGCCGATTGTTTAGGATGGCATGTATAAGGTCAATAGTTTGGCAGTCAGGCAATTCCAAAAAGTTATAGACGGAATATTGACGTCACCCACGTGCCGAGATCATCGACATAGTTCCGCCTGAAGTGGCTAGCAAGCGCCGCTCTGGCAGGGAAGTACC (double strand) [Fis-A1mut-Fis-A2 fragment]”, for which the binding entry in data set [1] was “binds more weakly”.

For “GGTACTTCCCTGCCAGAGCGGCGCTTGCTAGCCACTTCAGGCGGAACTATGTCGATGATCTCTTGACGTTTTTGACGTCAATATTCCGTCTATAACTTTTTGGAATTGCCTGACTGCCAAACTATTGACCTTATACATGCCATCCTAAACAATCGGCAATGTAATGTCACATTGATATTTGTACCTTAGCCAAGCGTTTCGGATCCT (double strand) [lapA Fis-A1/Fis-A2 fragment WT]”, the binding entry in data set [1] and in data set [2] was “binds” in each case.

As for “TGCTGATAAGGGTTATCACGCCCTGGTGCTGGAGCAGCTGGCCAATGTTCGCCTTGAATCGGTGTTGAGTAAACAATTCTACGTGCTTCATTTTCACCAGACTTAGCGGGGCAATGATTCTGACAGGCCTGATCCAGCCATCATCCGGCTTGTTGCAGCATAGCCTGCCACTCAGCCAAGGCATGCAAGGGCTTTGGGTTCCAGCTTAGTCACTGTCAGTAAACAGGCGCTGGATCCA (double strand) [Fis-A7mut fragment]”, in data set [1], the binding entry is recorded as “binds more weakly”.

For “TGCTGATAAGGGTTATCACGCCCTGGTGCTGGAGCAGCTGGCCAATGTTCGCCTTGAATCGGTGTTGAGTAAACAATTCTACGTGCTTCATTTTCACCAGACTTAGCGGGGCAATGATTGTTTCATTTTTGATCCAGCCATCATCCGGCTTGTTGCAGCATAGCCTGCCACTCAGCCAAGGCATGCAAGGGCTTTGGGTTCCAGCTTAGTCACTGTCAGTAAACAGGCGCTGGATCCA (double strand) [lapA Fis-A7 fragment WT]”, the binding result in data set [1] and in data set [2] was “binds” throughout.

For “TTGAATTCATGCAAGGGCTTTGGGTTCCAGCTTAGTCACTGTCAGTAAACAGGCGCTGGTTTGTTGGCGCATATCTGTGGCTTGTTAGTCAAAATTCATCTATAGAGTGCGGATTCTTGCCTTCTTGCATTCAATATCCGCAAGCGATTTTCAATGATCGGGATACCATTATTCACGCACTCGTCGGTCATCTCTTTGATTTGCGACACATAGCTGCTTGTGACTCGGATCCAAA (double strand) [lapA Fis-A5/Fis-A6 fragment WT]”, the binding entry in data set [1] and in data set [2] was “binds” in each case.

As for “TTTGGATCCGAGTCACAAGCAGCTATGTGTCGCAAATCAAAGAGATGACCGACGAGTGCGTGAATAATGGTATCCCGATCATTGAAAATCGCTTGCGGAGGCTGACTGGGAGAAGGCAAGAATCCGCACTCTATAGATGAATTTTGACTAACAAGCCACAGATATGCGCCAACAAACCAGCGCCTGTTTACTGACAGTGACTAAGCTGGAACCCAAAGCCCTTGCATGAATTCAA (double strand) [Fis-A5mut-Fis-A6 fragment]”, in data set [1], the binding entry is given as “binds more weakly”.

Turning to “TTTGGATCCGAGTCACAAGCAGCTATGTGTCGCAAATCAAAGAGATGACCGACGAGTGCGTGAATAATGGTATCCCGATCATTGAAAATCGCTTGCGGATATTGAATGCAAGAAGGCAAGAATCCGCACTCTATACACGTAGGCCGACTAACAAGCCACAGATATGCGCCAACAAACCAGCGCCTGTTTACTGACAGTGACTAAGCTGGAACCCAAAGCCCTTGCATGAATTCAA (double strand) [Fis-A5-Fis-A6mut fragment]”, in data set [1], the binding entry was “binds more weakly”.
